Target: rMBL-rMASP-2 complexes, P11226
Sequence (P11226 21-248, chain 1 of 2): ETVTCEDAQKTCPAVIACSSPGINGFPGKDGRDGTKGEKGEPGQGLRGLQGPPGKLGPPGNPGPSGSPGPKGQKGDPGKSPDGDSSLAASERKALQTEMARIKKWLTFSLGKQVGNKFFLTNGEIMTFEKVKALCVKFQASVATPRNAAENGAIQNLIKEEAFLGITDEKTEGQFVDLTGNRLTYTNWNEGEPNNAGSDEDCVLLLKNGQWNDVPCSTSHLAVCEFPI
Sequence (chain, as listed by the source, chain 2 of 2): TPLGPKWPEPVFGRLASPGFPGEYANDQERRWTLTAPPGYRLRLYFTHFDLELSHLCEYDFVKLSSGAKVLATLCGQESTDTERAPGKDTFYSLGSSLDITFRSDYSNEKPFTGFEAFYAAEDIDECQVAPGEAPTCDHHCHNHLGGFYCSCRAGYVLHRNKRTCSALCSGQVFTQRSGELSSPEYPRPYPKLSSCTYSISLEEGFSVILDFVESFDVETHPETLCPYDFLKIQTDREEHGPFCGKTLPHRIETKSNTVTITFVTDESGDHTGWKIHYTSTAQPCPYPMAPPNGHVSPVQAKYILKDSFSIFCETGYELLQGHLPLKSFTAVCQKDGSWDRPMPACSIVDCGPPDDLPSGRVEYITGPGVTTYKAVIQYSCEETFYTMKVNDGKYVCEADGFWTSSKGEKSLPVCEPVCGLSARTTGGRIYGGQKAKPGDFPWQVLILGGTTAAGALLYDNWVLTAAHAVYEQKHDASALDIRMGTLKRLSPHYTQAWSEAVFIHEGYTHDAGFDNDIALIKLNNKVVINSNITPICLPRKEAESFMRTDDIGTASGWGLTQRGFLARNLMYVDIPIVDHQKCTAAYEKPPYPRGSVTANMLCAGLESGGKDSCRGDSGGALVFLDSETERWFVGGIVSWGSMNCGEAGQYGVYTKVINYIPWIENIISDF

## GSGALLSASWILTAAHVLRSQRRDTTVIPVSKEHVTVYL [rMASP-3 (recombinant MASP-3 from HEK 293EBNA cells transfected with the pMASP-3; 4.1 construct)]
  activation of C4 by rMBL-rMASP-2 complexes (bound C4 on mannan-coated wells, Eu-labelled anti-C4 antibody): The activity of rMBL-rMASP-2 complexes was also inhibited by rMASP-3

Reference: US20030186419
